From patent US20070213263A1, “Methods And Compositions Using Adiponectin For Treatment Of Cardiac Disorders And For Stimulation Of Angiogenesis” (The Trustees of Boston University, priority 2003, published 2007)

Tests used:
HUVECs [1] = assay: Tube formation assay, HUVECs on Matrigel; type: cell-based, human; conditions: adiponectin 30 μg/ml, VEGF 20 ng/ml, 18 h
Experimental: The formation of vascular-like structures by HUVECs on growth factor-reduced Matrigel (Becton Dickinson) was performed as previously described^28. Twenty-four-well culture plates were coated with Matrigel according to the manufacturer's instructions. […] The degree of tube formation was quantified by measuring the length of tubes in 3 randomly chosen fields from each well using the angiogenic activity quantification program (Kurabo, Osaka, Japan). […]

HUVECs [2] = assay: Migration assay (modified Boyden chamber); type: cell-based, human; conditions: adiponectin 30 μg/ml, VEGF 20 ng/ml, 4 h
Experimental: Migration activity was measured using a modified Boyden chamber assay. Serum-starved cells were trypsinized and resuspended in EGM-2 with 0.5% FBS. Cell suspension (250 μl, 2.0×10^4 cells/well) were added to the transwell fibronectin-coated insert (6.4 mm diameter, 3.0 μm pore size, Becton Dickinson, Franklin Lakes, N.J.). Then 750 μl of EGM-2 with 0.5% FBS supplemented with adiponectin (30 μg/ml), VEGF (20 ng/ml) or bovine serum albumin (BSA) (30 μg/ml) were added to lower chamber and incubated for 4 h. Migrated cells on the lower surface of the membrane were fixed, stained with Giemsa stain solution and eight random microscopic fields per well were quantified. All assays were performed in triplicate.

rat cardiac myocytes = assay: Agonist-stimulated hypertrophy of cultured neonatal rat ventricular myocytes; type: cell-based
Experimental: [^3H] leucine incorporation was determined as previously described 74.
For histological analysis, the mice were sacrificed and LV tissue was obtained at 7 days after TAC. Tissue was embedded in OCT compound (Miles, Elkhart, Ind.) and snap-frozen in liquid nitrogen. Tissue slices (5 μm in thickness) were prepared. Tissue sections were stained with hematoxylin and eosin or with Masson trichrome. The myocyte cross sectional area was calculated by measuring 200 cells per section. To determine sarcomeric F-actin organization, cultured myocytes were stained with FITC-conjugated phalloidin (Sigma, St. Louis, Mo.).

endothelial cells = assay: Cell-wounding assay (unpublished data); type: cell-based
[3] = test system: AMPK (Thr 172 of α subunit); assay: Western blot, AMPK phosphorylation in HUVECs; type: cell-based, human; conditions: adiponectin 30 μg/ml
Experimental: (§1) Human umbilical vein endothelium cells (HUVECs) were cultured in endothelial cell growth medium-2 (EGM-2, San Diego, Calif.). Before each experiment, cells were placed in endothelial cell basal medium-2 (EBM-2, San Diego, Calif.) with 0.5% fetal bovine serum (FBS) for 16 h for serum-starvation. Experiments were performed by the addition of the indicated amount of mouse recombinant adiponectin, VEGF or vehicle for the indicated lengths of time. In some experiments, HUVECs were infected with adenoviral constructs encoding dominant-negative AMPKα2^28, dominant-negative AKT1^19 or green fluorescence protein (GFP) at a multiplicity of infection (MOI) of 50 for 24 h. In some experiments, HUVECs were pretreated with LY294002 (10 μM) or vehicle for 1 h before stimulation with adiponectin. Cell lysates were resolved by SDS-PAGE. The membranes were immunoblotted with the indicated antibodies at a 1:1000 dilution followed by the secondary antibody conjugated with horseradish peroxidase (HRP) at a 1:5000 dilution. ECL-PLUS Western Blotting Detection kit (Amersham Pharmacia Biotech, Piscataway, N.J.) was used for detection.

Akt (Ser 473) = assay: Western blot, Akt phosphorylation in HUVECs; type: cell-based, human; conditions: adiponectin 30 μg/ml, time course
Experimental: as §1

ERK (Thr 202/Tyr 204) [4] = assay: Western blot, ERK phosphorylation in HUVECs; type: cell-based, human; conditions: adiponectin 30 μg/ml, time course
Experimental: Human umbilical vein endothelium cells (HUVECs) were cultured in endothelial cell growth medium-2 (EGM-2, San Diego, Calif.). Before each experiment, cells were placed in endothelial cell basal medium-2 (EBM-2, San Diego, Calif.) with 0.5% fetal bovine serum (FBS) for 16 h for serum-starvation. Experiments were performed by the addition of the indicated amount of mouse recombinant adiponectin, VEGF or vehicle for the indicated lengths of time. In some experiments, HUVECs were infected with adenoviral constructs encoding dominant-negative AMPKα2^28, dominant-negative AKT1^19 or green fluorescence protein (GFP) at a multiplicity of infection (MOI) of 50 for 24 h. In some experiments, HUVECs were pretreated with LY294002 (10 μM) or vehicle for 1 h before stimulation with adiponectin. Cell lysates were resolved by SDS-PAGE. The membranes were immunoblotted with the indicated antibodies at a 1:1000 dilution followed by the secondary antibody conjugated with horseradish peroxidase (HRP) at a 1:5000 dilution.

eNOS (Ser 1179) = assay: Western blot, eNOS phosphorylation in HUVECs; type: cell-based, human; conditions: adiponectin 30 μg/ml
Experimental: as §1

[5] = test system: CD31-positive cells in Matrigel plugs; assay: Mouse angiogenesis assay (Matrigel plug); type: in vivo, C57BL mice; conditions: adiponectin 100 μg/ml in plug, subcutaneous, 14 days
Experimental: The formation of new vessels in vivo was evaluated by Matrigel plug assay as described previously^28. For these experiments, 400 μl of Matrigel containing adiponectin (100 μg/ml) or vehicle was injected subcutaneously into the abdomen of C57BL mice. Mice were sacrificed 14 days after the injection. The Matrigel plugs with adjacent subcutaneous tissues were carefully recovered by en bloc resection, fixed in 4% paraformaldehyde, dehydrated with 30% sucrose, and embedded in OCT compound (GTI Microsystems, Tempe, Ariz.) in liquid nitrogen. Immunohistostaining for CD31 (PECAM-1: Becton Dickinson) were performed on adjacent frozen sections. Primary antibody was used at a 1:50 dilution followed by incubation of secondary antibody (HRP-conjugated anti-rat IgG at a 1:100 dilution). The AEC Substrate Pack (Biogenex, San Ramon, Calif.) was used for detection. CD31-positive capillaries were counted in 4 randomly chosen low-power (×100) microscopic fields.

[6] = test system: cornea neovascularization; assay: Rabbit corneal angiogenesis assay; type: in vivo, New Zealand white rabbits; conditions: day 7
Experimental: Rabbit corneal assay was performed with minor modification as previously described^33. Male New Zealand white rabbits weighing 3.0-3.9 kg were used. Two pockets, about 2×3 mm size and 5 mm apart, were surgically prepared in the cornea extending toward a point 2 mm from the limbus. Hydron pellets, which contain indicated amount of adiponectin, VEGF (100 ng) or PBS and enables the slow release of it^34, were implanted into the pocket. On day 7 after surgery, eyes were photographed and cornea neovascularization was examined in a single blind manner. The angiogenic activity was evaluated on the basis of the number and growth rate of newly formed capillaries. An angiogenic score was calculated (vessel density×distance from limbus)^32. A density value of 1 corresponded to 0-25 vessels per cornea, 2 from […], 3 from 50-75, 4 from 75-100 and 5 for >100 vessels.

ERK (Thr 202/Tyr 204) [7] = assay: Western blot, ERK phosphorylation in cultured cardiac myocytes; type: cell-based, rat
[8] = test system: AMPK (Thr 172 of the α subunit); assay: Western blot, AMPK phosphorylation in cultured cardiac myocytes; type: cell-based, rat; conditions: adiponectin 30 μg/ml, time course
[9] = adiponectin 30 μg/ml pretreatment, Pro 2 μM, NE 1 μM, 48 hours

In the case of VEGF [reference compound], the “formation of capillary-like tubes (tube length)” value (HUVECs [1]) is reported as “a trend toward increased tube length in the VEGF-treated cultures relative to adiponectin, but this was not statistically significant” and the HUVEC migration (HUVECs [2]) is reported as “a trend toward greater migration with VEGF compared to adiponectin, but this was not statistically significant”.

With N#CC(=C(/N)Sc1ccccc1N)/C(C#N)=C(\N)Sc1ccccc1N [U0126, reference compound] the “reduction of αAR-induced hypertrophy” value (rat cardiac myocytes; p<0.01 vs. control) was 82.1±7.8%.

B1: adiponectin: Recombinant histidine-tagged mouse adiponectin (amino acids 15-247) expressed in bacteria; adipocyte specific cytokine (protein, UniProt Q15848 19-244, looked up)
Adiponectin: ETTTQGPGVLLPLPKGACTGWMAGIPGHPGHNGAPGRDGRDGTPGEKGEKGDPGLIGPKGDIGETGVPGAEGPRGFPGIQGRKGEPGEGAYVYRSAFSVGLETYVTIPNMPIRFTKIFYNQQNHYDGSTGKFHCNIPGLYYFAYHITVYMKDVKVSLFKKDKAMLFTYDQYQENNVDQASGSVLLHLEVGDQVWLQVYGEGERNGLYADNDNDSTFTGFLLYHDTN
In the case of B1, the “formation of capillary-like tubes (tube length)” value (HUVECs [1]) is reported as “promoted the formation of capillary-like tubes in a manner similar to VEGF”, the HUVEC migration (HUVECs [2]) is reported as “significantly stimulated HUVEC migration” and the “endothelial migration in cell-wounding assay” value (endothelial cells) is reported as “induced the endothelial migration”. For the same molecule, the “time of maximal AMPK phosphorylation” value [3] was 15 min, the “phosphorylation of AMPK” value ([3]; time course) was “enhanced the phosphorylation of AMPK in a time-dependent manner” and the Akt phosphorylation (Akt (Ser 473)) was “time-dependent increase in Akt phosphorylation”. For the same molecule, the “phosphorylation of ERK” value (ERK (Thr 202/Tyr 204) [4]) was “no effect on the phosphorylation of ERK”, the eNOS protein levels (eNOS (Ser 1179)) was “no effect on eNOS protein levels” and the “eNOS phosphorylation at Ser 1179” value (eNOS (Ser 1179); time course) was “time-dependent increase in eNOS phosphorylation”. For the same molecule, the “density of CD31-positive cells in Matrigel plugs” value [5] was “significantly higher density of CD31-positive cells compared with controls”, the “stimulatory effect on corneal neovascularization relative to VEGF” value ([6]; adiponectin 1 μg and 10 μg vs VEGF 100 ng) was “comparable with that of VEGF” and the “neovascularization in corneal implants” value ([6]; pellets with adiponectin 1 μg and 10 μg) was “markedly accelerated compared with controls”. For the same molecule, the “αAR-stimulated increase in protein synthesis ([3H] leucine incorporation)” value (rat cardiac myocytes; [9]) was “prevented”, the “αAR-stimulated re-organization of sarcomeric actin” value (rat cardiac myocytes; [9]) was “prevented” and the AngII-stimulated myocyte hypertrophy (rat cardiac myocytes; data not shown) was “suppressed”. The “αAR-stimulated increase in myocyte size” value (rat cardiac myocytes; pretreatment, then Pro 2 μM and NE 1 μM for 48 hours) was “prevented”, the “actin organization, agent alone” value (rat cardiac myocytes; without αAR stimulation) was “no effect” and the “myocyte size, agent alone” value (rat cardiac myocytes; without αAR stimulation) was “no effect”. The “protein synthesis, agent alone” value (rat cardiac myocytes; without αAR stimulation) was “no effect”, the “αAR-stimulated ERK phosphorylation” value (ERK (Thr 202/Tyr 204) [7]; adiponectin 30 μg/ml pretreatment, Pro 2 μM, NE 1 μM) was “suppressed” and the “AngII-stimulated ERK phosphorylation” value (ERK (Thr 202/Tyr 204) [7]; data not shown) was “suppressed AngII-stimulated ERK phosphorylation”. The “ERK phosphorylation, agent alone” value (ERK (Thr 202/Tyr 204) [7]; without αAR stimulation) was “no effect on ERK phosphorylation” and the “phosphorylation of AMPK” value [8] was “stimulated the phosphorylation of AMPK in cultured cardiac myocytes in a time-dependent manner”.
